Measurements reported in patent publication US20210388087A1 (Chugai, published 2021).

Each binder was assayed against T1, CD3 epsilon homodimer protein (UniProt P07766 23-126) (assay: SPR Biacore T200, CD3e homodimer on chip, vs unaltered GLS3000 antibody).
T1 construct: also called CD3 (CD3 epsilon)
T1 sequence (P07766 23-126): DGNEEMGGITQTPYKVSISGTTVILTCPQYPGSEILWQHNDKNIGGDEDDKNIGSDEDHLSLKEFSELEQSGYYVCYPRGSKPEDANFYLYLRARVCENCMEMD

Row | ratio of amounts bound (Z=Y/X) | Binder
1 | 1.03 | GLS3000 S27eA (antibody, name in Kabat numbering, V domains shown, one-arm IgG as m2) VH: QVQLVESGGGVVQPGRSLRLSCAASGFTFSNAWMHWVRQAPGKGLEWVAQIKAKSNNYATYYAESVKGRFTISRDDSKNSLYLQMNSLKTEDTAVYYCRYVHYGAYYGVDAWGQGTTVTVSS VL: DIVMTQSPLSLPVTPGEPASISCRSSQSLVHANRNTYLHWYQQKPGQAPRLLIYKVSNRFSGVPDRFSGSGSGTDFTLKISRVEAEDVGVYYCGQGTQVPYTFGQGTKLEIK
2 | 1.07 | GLS3000 S27eI (antibody, name in Kabat numbering, V domains shown, one-arm IgG as m2) VH: QVQLVESGGGVVQPGRSLRLSCAASGFTFSNAWMHWVRQAPGKGLEWVAQIKAKSNNYATYYAESVKGRFTISRDDSKNSLYLQMNSLKTEDTAVYYCRYVHYGAYYGVDAWGQGTTVTVSS VL: DIVMTQSPLSLPVTPGEPASISCRSSQSLVHINRNTYLHWYQQKPGQAPRLLIYKVSNRFSGVPDRFSGSGSGTDFTLKISRVEAEDVGVYYCGQGTQVPYTFGQGTKLEIK
3 | 1.23 | GLS3000 S27eH (antibody, name in Kabat numbering, V domains shown, one-arm IgG as m2) VH: QVQLVESGGGVVQPGRSLRLSCAASGFTFSNAWMHWVRQAPGKGLEWVAQIKAKSNNYATYYAESVKGRFTISRDDSKNSLYLQMNSLKTEDTAVYYCRYVHYGAYYGVDAWGQGTTVTVSS VL: DIVMTQSPLSLPVTPGEPASISCRSSQSLVHHNRNTYLHWYQQKPGQAPRLLIYKVSNRFSGVPDRFSGSGSGTDFTLKISRVEAEDVGVYYCGQGTQVPYTFGQGTKLEIK
4 | 1.59 | GLS3000 S27eK (antibody, name in Kabat numbering, V domains shown, one-arm IgG as m2) VH: QVQLVESGGGVVQPGRSLRLSCAASGFTFSNAWMHWVRQAPGKGLEWVAQIKAKSNNYATYYAESVKGRFTISRDDSKNSLYLQMNSLKTEDTAVYYCRYVHYGAYYGVDAWGQGTTVTVSS VL: DIVMTQSPLSLPVTPGEPASISCRSSQSLVHKNRNTYLHWYQQKPGQAPRLLIYKVSNRFSGVPDRFSGSGSGTDFTLKISRVEAEDVGVYYCGQGTQVPYTFGQGTKLEIK
5 | 1.04 | GLS3000 S27eG (antibody, name in Kabat numbering, V domains shown, one-arm IgG as m2) VH: QVQLVESGGGVVQPGRSLRLSCAASGFTFSNAWMHWVRQAPGKGLEWVAQIKAKSNNYATYYAESVKGRFTISRDDSKNSLYLQMNSLKTEDTAVYYCRYVHYGAYYGVDAWGQGTTVTVSS VL: DIVMTQSPLSLPVTPGEPASISCRSSQSLVHGNRNTYLHWYQQKPGQAPRLLIYKVSNRFSGVPDRFSGSGSGTDFTLKISRVEAEDVGVYYCGQGTQVPYTFGQGTKLEIK
6 | 0.69 | GLS3000 S27eD (antibody, name in Kabat numbering, V domains shown, one-arm IgG as m2) VH: QVQLVESGGGVVQPGRSLRLSCAASGFTFSNAWMHWVRQAPGKGLEWVAQIKAKSNNYATYYAESVKGRFTISRDDSKNSLYLQMNSLKTEDTAVYYCRYVHYGAYYGVDAWGQGTTVTVSS VL: DIVMTQSPLSLPVTPGEPASISCRSSQSLVHDNRNTYLHWYQQKPGQAPRLLIYKVSNRFSGVPDRFSGSGSGTDFTLKISRVEAEDVGVYYCGQGTQVPYTFGQGTKLEIK
7 | 1.32 | GLS3000 S27eF (antibody, name in Kabat numbering, V domains shown, one-arm IgG as m2) VH: QVQLVESGGGVVQPGRSLRLSCAASGFTFSNAWMHWVRQAPGKGLEWVAQIKAKSNNYATYYAESVKGRFTISRDDSKNSLYLQMNSLKTEDTAVYYCRYVHYGAYYGVDAWGQGTTVTVSS VL: DIVMTQSPLSLPVTPGEPASISCRSSQSLVHFNRNTYLHWYQQKPGQAPRLLIYKVSNRFSGVPDRFSGSGSGTDFTLKISRVEAEDVGVYYCGQGTQVPYTFGQGTKLEIK
8 | 0.76 | GLS3000 S27eE (antibody, name in Kabat numbering, V domains shown, one-arm IgG as m2) VH: QVQLVESGGGVVQPGRSLRLSCAASGFTFSNAWMHWVRQAPGKGLEWVAQIKAKSNNYATYYAESVKGRFTISRDDSKNSLYLQMNSLKTEDTAVYYCRYVHYGAYYGVDAWGQGTTVTVSS VL: DIVMTQSPLSLPVTPGEPASISCRSSQSLVHENRNTYLHWYQQKPGQAPRLLIYKVSNRFSGVPDRFSGSGSGTDFTLKISRVEAEDVGVYYCGQGTQVPYTFGQGTKLEIK
